Experimental data: patent US20250019435A1 (ALBERT EINSTEIN COLLEGE OF MEDICINE, published 2025)
Residue numbers refer to the chain shown, from its start. Names may count otherwise.

T1: PVR expressed on transduced cells (PVR-YFP) (UniProt P15151 21-417)
T1 construct: whole, on cells; On NIH 3T3 or Raji cells; also called PVR/3T3; PVR-YFP/3T3; not shown: YFP ('PVR-YFP ... fusion protein')
T1 sequence (looked up): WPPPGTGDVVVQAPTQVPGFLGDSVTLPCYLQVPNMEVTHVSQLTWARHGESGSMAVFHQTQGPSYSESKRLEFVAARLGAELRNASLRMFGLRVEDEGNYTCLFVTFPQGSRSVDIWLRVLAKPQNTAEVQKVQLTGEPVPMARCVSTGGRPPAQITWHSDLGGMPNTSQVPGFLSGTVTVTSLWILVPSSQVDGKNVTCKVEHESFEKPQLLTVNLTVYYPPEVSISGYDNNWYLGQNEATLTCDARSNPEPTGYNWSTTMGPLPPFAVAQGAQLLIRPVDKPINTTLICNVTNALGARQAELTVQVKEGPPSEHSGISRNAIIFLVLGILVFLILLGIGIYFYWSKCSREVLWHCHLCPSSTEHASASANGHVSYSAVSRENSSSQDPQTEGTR

T2: PVR-Ig fusion protein (UniProt P15151 27-343)
T2 construct: Bought (R&D Systems); also called PVR-Ig protein; not shown: Ig part, detected with anti-human IgG Fc
T2 sequence (looked up): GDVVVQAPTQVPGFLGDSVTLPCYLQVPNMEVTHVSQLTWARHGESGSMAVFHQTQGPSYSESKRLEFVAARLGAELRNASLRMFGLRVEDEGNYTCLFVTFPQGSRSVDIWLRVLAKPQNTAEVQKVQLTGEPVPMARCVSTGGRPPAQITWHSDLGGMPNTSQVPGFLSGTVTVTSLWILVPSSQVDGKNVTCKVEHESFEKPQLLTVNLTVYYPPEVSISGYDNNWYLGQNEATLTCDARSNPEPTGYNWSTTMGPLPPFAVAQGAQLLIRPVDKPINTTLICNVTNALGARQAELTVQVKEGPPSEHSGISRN

B1: anti-KIR2DL5 mAb clone B2A18 (antibody, V domains shown)
VH: QIQLVQSGPEVKKPGETVKISCKASGYTFTKYGMNWVKQAPGKGLKWMGWINTNTGESTYAEDFKGRFAFSLETSANTAFLQINNLKNEDTAAYFCARWGPYGSSLYYGMDYWGQGTSVTVS
VL: DIQMTQSSSSFSISLGDRVTITCRASEDLYNRLAWYQQKPGNAPRLLISGATSLETGVPSRFSGSGSGKDFTLSIPSVQTEDVGTYYCQQYRYTPWTFGGGTTLN
notes: also called B2A18, (IgG1, κ)
B2: anti-KIR2DL5 mAb clone B33C12 (antibody, V domains shown)
VH: QVQLQQSGAELVKPGASVKMSCKAFGYTFTSFPIEWMKQNHGKSLEWIGNFHPSNDDTKYNEKFNGKAKLTAETSSKTVYLELSRLTSDDSAVYYCARGSDYSFALDYWGQGTSVTVSS
VL: GIVLTQSPASLAVSLGQRATISCRASESVDSYGYSFMHWYQQKPGQPPKLLIYRASNLKSGIPARFSGSGSRTDFTLTINPVEADDVATYYCQQSNEDPWTFGGGTKLEIK
notes: also called B33C12 (IgG2a, κ)
B3: anti-KIR2DL5 mAb clone B11B4 (antibody, V domains shown)
VH: B2 VH with A9G, S54Y, S91C, A92S, A105G
VL: GIVLTQSPASLVVSLGQRATISCRASESVDSYGYSFMHWYQQKPGQPPKLLIYRASNLKSGIPARFSGSGCRTDFTLTINPVEADDVATYYCQQSNEDPWTFGGGTKAGN
notes: also called B11B4 (IgG2b, κ)
B4: Y328F (receptor)
receptor chain: HEGGQDKPLLSAWPSAVVPRGGHVTLLCRSRLGFTIFSLYKEDGVPVPELYNKIFWKSILMGPVTPAHAGTYRCRGSHPRSPIEWSAPSNPLVIVVTGLFGKPSLSAQPGPTVRTGENVTLSCSSRSSFDMYHLSREGRAHEPRLPAVPSVNGTFQADFPLGPATHGGTYTCFGSLHDSPYEWSDPSDPLLVSVTGNSSSSSSSPTEPSSKTGIRRHLHILIGTSVAIILFIILFFFLLHCCCSNKKNAAVMDQEPAGDRTVNREDSDDQDPQEVTYAQLDHCVFTQTKITSPSQRPKTPPTDTTMFMELPNAKPRSLSPAHKHHSQALRGSSRETTALSQNRVASSHVPAAGI
notes: also called KIR2DL5 Y328F (ITSM mutant) on transduced primary NK cells
B5: D2-deleted KIR2DL5 expressed on 3T3 cells (receptor)
chain: HEGGQDKPLLSAWPSAVVPRGGHVTLLCRSRLGFTIFSLYKEDGVPVPELYNKIFWKSILMGPVTPAHAGTYRCRGSHPRSPIEWSAPSNPLVIVVTGNSSSSSSSPTEPSSKTGIRRHLHILIGTSVAIILFIILFFFLLHCCCSNKKNAAVMDQEPAGDRTVNREDSDDQDPQEVTYAQLDHCVFTQTKITSPSQRPKTPPTDTTMYMELPNAKPRSLSPAHKHHSQALRGSSRETTALSQNRVASSHVPAAGI
notes: also called KIR2DL5 dD2
B6: D0-deleted KIR2DL5 expressed on 3T3 cells (receptor)
chain: GLFGKPSLSAQPGPTVRTGENVTLSCSSRSSFDMYHLSREGRAHEPRLPAVPSVNGTFQADFPLGPATHGGTYTCFGSLHDSPYEWSDPSDPLLVSVTGNSSSSSSSPTEPSSKTGIRRHLHILIGTSVAIILFIILFFFLLHCCCSNKKNAAVMDQEPAGDRTVNREDSDDQDPQEVTYAQLDHCVFTQTKITSPSQRPKTPPTDTTMYMELPNAKPRSLSPAHKHHSQALRGSSRETTALSQNRVASSHVPAAGI
notes: the signal peptide 1-21 is left out; also called KIR2DL5 dD0; DO-deleted KIR2DL5

Columns and labels:
[1] = target: B6; test: flow cytometry, transduced 3T3 cells
Excerpt: FIG. 15A-15E: Characterization of anti-KIR2DL5 specific monoclonal antibodies. (Related to FIGS. 8A-8D). (A) The protein sequence of KIR2DL5. The extracellular domain of KIR2DL5 was composed of tandem DO-D2 domains. The cytoplasmic tail of KIR2DL5 contained an immunoreceptor tyrosine-based inhibition motif (ITIM) and immunoreceptor tyrosine-based switch motif (ITSM). Domains were predicted and annotated based on UniProtKB (Q8N109). (B) The specificity of anti-KIR2DL5 mAbs. 3T3 cells transduced with indicated KIR family members were stained with 5 μg/ml of indicated anti-KIR2DL5 mAbs (open) or mIgG1 (shaded). (C, D) The affinity of anti-KIR2DL5 mAbs. C: Kinetic binding curves for F8B30 and B19C11. D: Data were acquired from kinetic binding curves detected by the Octet Red96 BLI instrument for indicated clones. (E) 3T3 cells transduced with DO-deleted (KIR2DL5 dD0) or D2-deleted KIR2DL5 (KIR2DL5 dD2) were stained with 5 μg/ml of indicated anti-KIR2DL5 mAbs. In B-E, data are representative of three independent experiments.

[2] = target: T3, KIR2DL5A*005 allele expressed on 3T3 cells (human); test: flow cytometry, 3T3 cells expressing KIR2DL5 alleles, mAb 5 µg/ml
T3 construct: also called 2D5A*005

[3] = target: T4, KIR2DL5-Ig fusion protein (KIR2DL5 extracellular domain fused to human IgG1 Fc) (human, UniProt Q8N109 22-240); test: BLI, Octet RED96; KIR2DL5-Ig captured on anti-human Fc biosensors, mAb in solution; global 1:1 fit
T4 construct: A D0-only fusion (H22-A128) also exists; also called KIR2DL5-human Ig fusion protein; KIR2DL5 DO-D2-Ig; not shown: human IgG1 Fc tag
Description: Biolayer interferometry. The affinities of anti-KIR2DL5 mAbs were analyzed by biolayer interferometry using an Octet RED96 system (ForteBio, Pall LLC). Briefly, anti-human Fc capture biosensors (ForteBio, Pall LLC) were preloaded with KIR2DL5-Ig and then dipped into a solution containing mAb at 2-fold serial dilutions (from 200 to 1.5 μg/mL). Data were analyzed using Forte Pall (Port Washington, New York, USA) software 9.0. The global data fitting to a 1:1 binding model was used to estimate values for the Kₒₙ (association rate constant), Koff (dissociation rate constant), and KD (equilibrium dissociation constant).

[4] = target: T1, PVR expressed on transduced cells …; test: confocal imaging of conjugates of transduced primary NK cells with PVR-YFP/Raji cells
Description: The KIR2DL5⁻ primary NK cells were transduced with WT KIR2DL5 or the indicated mutants, and then examined for protein expression with F8B30 (open) or mIgG1 (shaded). NC, negative control. Data are representative of 2 independent experiments. (B and C) Transduced primary NK cells were treated with (+) or without (−) pervanadate (VO₄) for 5 minutes. Cell lysates were immunoprecipitated with anti-KIR2DL5 antibodies. Phospho-tyrosine (4G10), SHP-1, SHP-2, and total KIR2DL5 were detected by immunoblots (B). Quantification of p-Tyr, SHP-1, and SHP-2 association with WT or mutant KIR2DL5 in VO₄-treated NK cells (C). WCL, whole-cell lysates. (D) Representative imaging of cell conjugates acquired upon the indicated transduced primary NK and PVR/Raji cell contact followed by staining with anti-KIR2DL5 mAb and DAPI. Scale bars: […]. (E) Lysis of scramble control or PVR^KO A427 (top) and Jurkat (bottom) by WT or mutant KIR2DL5-transduced primary NK cells at the indicated E/T ratios. Data are mean for duplicate measurements and representative of 3 independent experiments with 3 different donors. In A, and B, data are representative of 3 independent experiments. *P<0.05, **P<0.01, ***P<0.001, ****P<0.0001, by 1-way ANOVA (C), or paired Student's t test (D).
NK-Raji conjugation assay. […] Cell mixtures were then loaded onto poly-L-lysine-precoated slides and fixed with 4% formaldehyde at RT for 15 minutes. After blocking with 5% normal goat serum at RT for 1 hour, cells were stained with 20 µg/mL anti-KIR2DL5 antibodies (a mixture of 8 homemade clones) at 4° C. overnight and then with goat anti-mIgG (H+L) Alexa Flour 647 (Invitrogen) at RT for 2 hours. The cells were permeabilized by 0.1% Triton X-100 at RT for 15 minutes and stained with Alexa Flour Plus 405 Phalloidin (Life Technologies) for 1 hour at RT. The slides were then mounted by Gold Antifade Mountant without DAPI (Life Technologies). The mean pixel intensity of synapse and non-synapse was respectively measured and statistically analyzed. Images were acquired by Leica SP8 confocal microscope and processed by ImageJ (NIH).

[5] = target: T2, PVR-Ig fusion protein; test: flow cytometry, PVR-Ig on transduced 3T3 cells
Description: FIG. 10A-E: Allelic polymorphism affected PVR binding of KIR2DL5. (A) Flow cytometric analysis of PVR-Ig or CD112-Ig (open) or control hIg (shaded) binding to KIR2DL5/3T3. (B) Flow cytometric analysis of PVR-Ig binding to KIR2DL5/3T3 in the presence of increasing concentrations of F8B30. (C) KIR2DL5 bound to different sites of PVR from other receptors. PVR-Ig protein was preincubated with indicated His-tagged protein and then stained KIR2DL5/3T3 cells. […] (D) Flow cytometric analysis of PVR-Ig (open) or control hIg (shaded) binding on 3T3 cells expressing WT, DO-deleted, or D2-deleted KIR2DL5. Parental 3T3 cells were used as a negative control. (E) Flow cytometric analysis of PVR-Ig or control hIg (shaded) binding on 3T3 cells expressing different KIR2DL5 alleles. In A-E, data are representative of 2 independent experiments.
Fusion protein cell binding assays. PVR-Ig, CD112-Ig, or hIgG (R&D Systems) was incubated with corresponding 3T3 cells on ice for 45 minutes, followed by incubation with APC- or PE-conjugated anti-human IgG Fc antibody (1:100; clone HP6017, BioLegend) on ice for 30 minutes. Cells were then acquired on an LSR II flow cytometer (BD Biosciences). In the anti-KIR2DL5 mAb blocking assay, KIR2DL5/3T3 cells were preincubated with a serial concentration of anti-KIR2DL5 mAb F8B30 or mIgG1 on ice for 30 minutes. […]

binding result [1] | binding result [2] | Kd [3] [nM] | koff [3] [s⁻¹] | kon [3] [M⁻¹ s⁻¹] | binding result [4] | binding result [5] | Binder
no binding (tested: 5 µg/ml) | binds | 0.104 | 0.000175 | 1.68e+06 |  |  | B1
no binding (tested: 5 µg/ml) | binds | 0.359 | 0.000299 | 835000 |  |  | B2
no binding (tested: 5 µg/ml) |  | 0.245 | 0.000202 | 825000 |  |  | B3
 |  |  |  |  | binds |  | B4
 |  |  |  |  |  | no binding | B5
 |  |  |  |  |  | no binding | B6
